According to paper PMC8249405, “Xanthomonas effector XopR hijacks host actin cytoskeleton via complex coacervation” (Nature Communications, 2021):

Tests used:
[1] = biological target: F-actin (filaments assembled from rabbit skeleton muscle actin) (rabbit, UniProt P68135 1-377); assay: co-sedimentation; high speed (100,000 x g, 20 min, 25 °C); 2 uM F-actin with a range of concentrations of the MBP-msfGFP fusion; SDS-PAGE; Hill fit; conditions: both partners purified
[2] = biological target: the molecule itself; assay: SEC; Superdex 200 Increase 10/300, 150 mM NaCl, against protein standards
[3] = biological target: G-actin (monomeric Ca2+-ATP-actin from rabbit skeleton muscle) (rabbit, UniProt P68135 1-377); assay: MST; peptides serially diluted and titrated into 10 uM LatB-actin; 50 mM Tris pH 7.4, 150 mM NaCl, 0.05% Tween 20; 22 °C; called label-free in the results; conditions: both partners purified

B1: MBP-HH-msfGFP (domain or fragment)
chain: SLRRLDLQLEEITRQCSDIQKQLFMEDRE
notes: XopR of Xcc, HH motif; also called chimeric protein HH; source: E. coli BL21 (DE3) Rosetta, purified; not shown: MBP, N-terminal, kept; msfGFP, C-terminal, kept
Kd [1]: 1.27 ± 0.05 µM

B2: Xcc XopR-FL (aa 1-411) (natural protein)
chain: MRLSQLFNSRHRVAPEPHGANPNKTTPLIPGASPQHPLSQAPKSTTSQGASKSHRGMLASARKSLASLRKQLPLTCMGSSPTLETVESPPAHTAAVTPGRTQQQHGTQARVDQRWQPPVPNATDHERVQRPQPQPQQTPPTRQSMSVPPKPARAQQLHGPQRPVDPRMQPPIPERMRRDEGQPPQHDKPASPPVPITPAQSSLPSPRPQPGRQPSLRRLDLQLEEITRQCSDIQKQLFMEDREATPQEQHLLKTRAALIAWRNEVRDSQLEALLVALAPMEDIRAPRTTSSGLAMVQMDAMQHNRREVLKARRKSVDRAALARNYARAQRRLESLKQGDAPKEQIRRLQRMMQGYQNMLALEQIVRSTDDQLERLGAPRLMSGIPTTAEQRRQSFEKERDAHQEAIDNGYY
notes: type III effector XopR of Xanthomonas campestris pv. campestris (Xcc) strain 8004, aa 1-411; The methods list a C-terminal His6-Flag form and a C-terminal mRuby2-His6-Flag form; also called full-length XopR; XopR full-length; source: E. coli BL21 (DE3) Rosetta, purified (HisTrap, gel filtration)
stoichiometry N [2]: 3

B3: EHWH2 peptide (peptide)
peptide: SLRRLDLQLEEITRQCSDIQKQLFMEDREATPQEQHLLKTRAA
notes: XopR of Xcc, extended helix plus WH2-like motif; also called CCWH2; source: synthetic peptide (GL Biochem)
Kd [3]: 16.5 ± 4.53 µM

B4: HH peptide (peptide)
peptide: SLRRLDLQLEEITRQCSDIQKQLFMEDRE
notes: XopR of Xcc, HH motif (extended helix and WH2 alpha-helix); also called CC; CC peptide; source: synthetic peptide (GL Biochem)
Kd [3]: 73.9 ± 63 µM

B5: WH2 peptide (peptide)
peptide: QCSDIQKQLFMEDREATPQEQHLLKTRAA
notes: XopR of Xcc, WH2-like motif without the extended helix; source: synthetic peptide (GL Biochem)
Kd [3]: > 100 µM

B6: MBP-EHWH2-msfGFP (domain or fragment)
chain: B3 peptide
notes: XopR of Xcc, EHWH2 stretch; also called chimeric protein EHWH2; source: E. coli BL21 (DE3) Rosetta, purified; not shown: MBP, N-terminal, kept; msfGFP, C-terminal, kept
Kd [1]: 1 ± 0.06 µM
